Measurements taken from paper PMC4646333.

What was measured:
[1] = molecular target: wild-type ferritin from Pyrococcus furiosus (WT-PfFtn) (Pyrococcus furiosus) (UniProt Q8U2T8); assay: native gel or EMSA; native gel electrophoresis of apo protein; WT-PfFtn 5 μM monomer, R117A-PfFtn 4.3 or 80 μM monomer
[2] = molecular target: R117A mutant of ferritin from Pyrococcus furiosus (R117A-PfFtn) (Pyrococcus furiosus) (UniProt Q8U2T8)

stoichiometry N [1] | rate of Fe(II) oxidation (Fe(III) formation at 315 nm after addition of two Fe(II) per subunit), R117A-PfFtn against WT-PfFtn [2] [fold] | Substance
24 |  | wild-type ferritin from Pyrococcus furiosus (WT-PfFtn) (from UniProt Q8U2T8 1-174) (natural protein)
 | > 100 | R117A mutant of ferritin from Pyrococcus furiosus (R117A-PfFtn) (from UniProt Q8U2T8 1-174) (natural protein)
